The source of these data is paper PMC3481545 (Biochemistry, 2012).

The labels stand for the following.
B1: human recombinant BMPR-II ECD, wild type (domain or fragment, UniProt Q13873 26-150, looked up)
chain: ASQNQERLCAFKDPYQQDLGIGESRISHENGTILCSKGSTCYGLWEKSKGDINLVKQGCWSHIGDPQECHYEECVVTTTPPSIQNGTYRFCCCSTDLCNVNFTENFPPPDTTPLSPPHSFNRDET
B2: GDF-5 (ligand, UniProt P43026 382-501, looked up)
chain: APLATRQGKRPSKNLKARCSRKALHVNFKDMGWDDWIIAPLEYEAFHCEGLCEFPLRSHLEPTNHAVIQTLMNSMDPESTPPTCCVPTRLSPISILFIDSANNVVYKQYEDMVVESCGCR
B3: BMPR-II ECD Y40R (domain or fragment, human, UniProt Q13873 26-150, looked up)
chain: ASQNQERLCAFKDPRQQDLGIGESRISHENGTILCSKGSTCYGLWEKSKGDINLVKQGCWSHIGDPQECHYEECVVTTTPPSIQNGTYRFCCCSTDLCNVNFTENFPPPDTTPLSPPHSFNRDET
B4: BMPR-II ECD Y40P (domain or fragment, human, UniProt Q13873 26-150, looked up)
chain: ASQNQERLCAFKDPPQQDLGIGESRISHENGTILCSKGSTCYGLWEKSKGDINLVKQGCWSHIGDPQECHYEECVVTTTPPSIQNGTYRFCCCSTDLCNVNFTENFPPPDTTPLSPPHSFNRDET
B5: BMPR-II ECD Y40G (domain or fragment, human, UniProt Q13873 26-150, looked up)
chain: ASQNQERLCAFKDPGQQDLGIGESRISHENGTILCSKGSTCYGLWEKSKGDINLVKQGCWSHIGDPQECHYEECVVTTTPPSIQNGTYRFCCCSTDLCNVNFTENFPPPDTTPLSPPHSFNRDET
B6: BMPR-II ECD Y40Q (domain or fragment, human, UniProt Q13873 26-150, looked up)
chain: ASQNQERLCAFKDPQQQDLGIGESRISHENGTILCSKGSTCYGLWEKSKGDINLVKQGCWSHIGDPQECHYEECVVTTTPPSIQNGTYRFCCCSTDLCNVNFTENFPPPDTTPLSPPHSFNRDET
B7: BMPR-II ECD G47N (domain or fragment, human, UniProt Q13873 26-150, looked up)
chain: ASQNQERLCAFKDPYQQDLGINESRISHENGTILCSKGSTCYGLWEKSKGDINLVKQGCWSHIGDPQECHYEECVVTTTPPSIQNGTYRFCCCSTDLCNVNFTENFPPPDTTPLSPPHSFNRDET
B8: BMPR-II ECD S107P (domain or fragment, human, UniProt Q13873 26-150, looked up)
chain: ASQNQERLCAFKDPYQQDLGIGESRISHENGTILCSKGSTCYGLWEKSKGDINLVKQGCWSHIGDPQECHYEECVVTTTPPPIQNGTYRFCCCSTDLCNVNFTENFPPPDTTPLSPPHSFNRDET

What all share (test): SPR
On the technique in general: In SPR one partner is held on a chip, and binding of the other changes the refractive index at the surface.

The target of assay [1] is T1, BMP-7 (UniProt P18075 293-431).
T1 sequence (looked up): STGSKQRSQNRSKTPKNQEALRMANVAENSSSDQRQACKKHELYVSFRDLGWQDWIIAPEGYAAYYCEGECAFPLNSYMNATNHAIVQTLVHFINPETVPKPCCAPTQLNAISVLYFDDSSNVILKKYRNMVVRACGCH

Assay [2] has as its target B8.
For assay [3], the target named is B1.
The target in assay [4] is B5.
Assay [5] concerns the target B4.
For assay [6], the target named is B6.
In assay [7] the target is B3.
For assay [8], the target named is B7.
Assay [9] has as its target Activin (UniProt P08476 311-426).
Assay [10] concerns the target B2.

Take B1: binding in assay [1] was characterised by a dissociation constant (Kd) of 135 µM.

Consider B2, for which the Kd (commonly the free concentration of one partner at which half of the binding sites on the other are occupied at equilibrium, for simple one-to-one binding) in [2] was determined as 90 µM; in [3], 221 µM; in [4], 123 µM; in assay [5], 200 µM; in assay [6], 175 µM; in assay [7] it was 117 µM. The molecule further displayed a Kd in assay [8] of 136 µM.

In assay [1], B3 showed a Kd of 117 µM.

Consider B4, for which the Kd in assay [1] stood at 157 µM.

The molecule B5 came in with a Kd in assay [1] of 138 µM.

Take B6: the Kd in [1] turned out to be 129 µM.

Turning to B7, the Kd in assay [1] came to 92 µM.

For the molecule B8, the affinity in assay [1], expressed as Kd, was 43 µM.

B9: Chimera BAB: BMPR-II ECD with the ActR-IIB A-loop (domain or fragment)
chain: ASQNQERLCAFKDPYQQDLGIGESRISHENGTILCSKGSTCYGLWEKSKGDINLVKQGCWDDFNCYDRQCVVTTTPPSIQNGTYRFCCCSTDLCNVNFTENFPPPDTTPLSPPHSFNRDET
As to B9, the Kd is 5 µM in assay [9], 59 µM in assay [1] and 197 µM in [10].
